Experimental findings from US11541101 (UNIVERSITY OF VIRGINIA PATENT FOUNDATION, dated 2023) are described below.

The target in the assay is T1, LEM domain containing protein 3 (LEMD3), endogenous (human, UniProt Q9Y2U8 2-911).
T1 construct: also called endogenous LEMD3; native LEMD3
T1 sequence: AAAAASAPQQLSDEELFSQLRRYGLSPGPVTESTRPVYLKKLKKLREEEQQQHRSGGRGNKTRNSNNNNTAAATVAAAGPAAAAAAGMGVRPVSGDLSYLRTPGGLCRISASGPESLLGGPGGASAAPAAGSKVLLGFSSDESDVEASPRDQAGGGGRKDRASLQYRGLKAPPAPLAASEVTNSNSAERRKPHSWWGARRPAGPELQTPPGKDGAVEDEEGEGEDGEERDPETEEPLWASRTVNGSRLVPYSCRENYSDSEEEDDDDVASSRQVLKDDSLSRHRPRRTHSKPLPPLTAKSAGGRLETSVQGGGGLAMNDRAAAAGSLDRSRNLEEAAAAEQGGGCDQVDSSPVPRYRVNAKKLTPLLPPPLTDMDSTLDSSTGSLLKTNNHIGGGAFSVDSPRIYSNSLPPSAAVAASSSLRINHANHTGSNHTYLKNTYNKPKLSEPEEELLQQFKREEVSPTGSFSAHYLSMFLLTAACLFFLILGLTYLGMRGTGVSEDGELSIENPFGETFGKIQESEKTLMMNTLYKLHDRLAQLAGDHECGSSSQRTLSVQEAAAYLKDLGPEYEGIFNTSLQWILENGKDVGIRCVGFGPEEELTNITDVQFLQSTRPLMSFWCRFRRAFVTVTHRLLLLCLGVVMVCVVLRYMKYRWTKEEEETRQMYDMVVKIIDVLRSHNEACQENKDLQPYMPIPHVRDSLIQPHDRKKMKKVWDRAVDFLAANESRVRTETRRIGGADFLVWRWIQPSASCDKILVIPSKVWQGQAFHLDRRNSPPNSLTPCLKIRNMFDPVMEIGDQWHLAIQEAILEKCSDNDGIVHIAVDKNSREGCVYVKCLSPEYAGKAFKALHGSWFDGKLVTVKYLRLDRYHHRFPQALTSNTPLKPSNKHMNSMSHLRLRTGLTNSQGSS
Description: LEMD3-PPM1α PLA in HFFs on glass; significant in cytoplasm and nucleus. The protocol: In vitro PLA: Protein-protein PLA was per-formed with antibody pairs listed in Table 4 as described in (42) with the following modifications: cells were plated on FN-coated glass or hydrogels (Matrigen, Brea, Calif.). All primary antibody in-cubations were performed for 16-24 hours at 4 C and cells were counter-stained with 1:40 phalloidin-488 or phalloidin-546 in 1×PBS for 30 minutes at room tempera-ture and/or further processed for IF imaging using the procedure recommended in Sigma's PLA Resource Center. For all recombinant LEMD3 and C-terminal fragment experiments, HFFs were electroporated as above and allowed to culture for 24 hours on 10 µg/mL fibronectin coated glass or hydrogels before fixation. For LEMD3-phospho-Smad2/3, LEMD3-Smad2/3+TGFβ and for Smad2/3-Smad4 PLA assays: cells were treated 90 minutes before fixation with 50 µg/mL for LEMD3- and CTF-Smad2/3 assays, 100 µg/mL TGFβ for LEMD3-phospho-Smad2/3 experiments and 500 µg/mL TGFβ for Smad2/3-Smad4 experiments. […] Imaging and analysis were performed as described for high-resolution ex vivo PLA signals except that no tissue autofluorescence signal was measured or needed to be subtracted and, when appro-priate, other IF signal (e.g. FLAG) were measured in parallel. […] Instead the PLA signal was quantified as the PLA volume divided by the nuclear intensity for each image.

B1: Protein Phosphatase, Mg2+/Mn2+ Dependent 1α (PPM1α) (enzyme, human, UniProt P35813 2-382, looked up)
chain: GAFLDKPKMEKHNAQGQGNGLRYGLSSMQGWRVEMEDAHTAVIGLPSGLESWSFFAVYDGHAGSQVAKYCCEHLLDHITNNQDFKGSAGAPSVENVKNGIRTGFLEIDEHMRVMSEKKHGADRSGSTAVGVLISPQHTYFINCGDSRGLLCRNRKVHFFTQDHKPSNPLEKERIQNAGGSVMIQRVNGSLAVSRALGDFDYKCVHGKGPTEQLVSPEPEVHDIERSEEDDQFIILACDGIWDVMGNEELCDFVRSRLEVTDDLEKVCNEVVDTCLYKGSRDNMSVILICFPNAPKVSPEAVKKEAELDKYLECRVEEIIKKQGEGVPDLVHVMRTLASENIPSLPPGGELASKRNVIEAVYNRLNPYKNDDTDSTSTDDMW
notes: whole, on cells; Endogenous protein inside fixed HFFs, detected by PLA with antibody 7F12; also called PPM1a
With B1, the binding result was “binds”.
